Measured values taken from the supplement of paper PMC12764529.
± gives the half width of the 95% confidence interval.

Experiments:
[1] = folding stability dG unfold from trypsin proteolysis; higher = more stable
How it was run: (§1)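 K50 was inferred by Bayesian fitting of sequencing counts obtained after protease digestion of designed mini-proteins. Unfolding free energy was derived by comparison with a sequence-predicted unfolded-state K50 and a shared folded-state K50, for each protease or both combined. The mini-proteins were under 80 residues, had no cysteine, were carried in a PA-tagged cDNA display construct, and were kept only if AlphaFold2 dimer inter-PAE exceeded 15.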

[2] = folding stability dG unfold from chymotrypsin proteolysis; higher = more stable
How it was run: as §1

[3] = folding stability dG unfold (combined trypsin and chymotrypsin); higher = more stable
How it was run: as §1

Sequence | folding stability dG unfold [1] [kcal/mol] | folding stability dG unfold [2] [kcal/mol] | folding stability dG unfold [3] [kcal/mol]
SAGMTVEELKAQPKNATVTSVSRDPSTGLYTVTIERPDSNGKWVTHTLTLTGPEAVAAAVAAGLPSLAASAG [r5_905_JUSTAS] | 1.31 ± 0.026 | 2.46 ± 0.043 | 2.16 ± 0.087
SAGMTVKVKVEVKTKYFDKNGKLVKEEKKTVEVEVEVKIVIELKPEDLEKAKELAEKLGIEITEEELKSAGG [r19_315_TrROS_Hall] | 1.26 ± 0.29 | 1.86 ± 0.17 | 1.74 ± 0.56
SAGMVEIVHDPAGYYTVNVTLTKEGKPTSRTIRVPPELSPEEVKALVEELAKEEGVDDVEVTVIPLPESAGG [r19_31_JUSTAS] | 1.1 ± 0.035 | 1.51 ± 0.12 | 1.41 ± 0.12
SAGMVEVYEEDKRLLVRVTLESPDPSTITEETVRELLERLGLPVEELEISPTALPNGSYTVTAEVVVLPSAG [r5_922_JUSTAS] | 1.39 ± 0.056 | 1.61 ± 0.025 | 1.59 ± 0.17
SAGMVIKVEVIYNGKKYTIEISEEQLKELLEKLKPGDEVEIEINGEKVLVRVEVVEPPEPSEEELKALKSAG [r5_669_TrROS_Hall] | 0.944 ± 0.087 | 2.1 ± 0.2 | 1.69 ± 0.24
SAGMVIPREEALANYSEEEIKELAKKIAEELGYKPKKIEIKKDPSPNSSITVTITPPDGSTIPLVLELPSAG [r5_745_JUSTAS] | 0.959 ± 0.041 | 1.08 ± 0.037 | 1.06 ± 0.047
SAGMVIRDPGDGKYIYISPGSGEIEIFNDGKEKKIPFPPGEEMEIEIDPDDGTITITFPNNGRELEIPLSAG [r5_858_TrROS] | 0.598 ± 0.049 | 0.846 ± 0.11 | 0.699 ± 0.16
SAGMVITISSDLSPEEVLATAQALAAELGAKKVEVERDPANPDVVTVTVEFPGLGKTVTVNVLPPELLESAG [r5_912_JUSTAS] | 1.28 ± 0.059 | 1.78 ± 0.065 | 1.57 ± 0.15
SAGMVKTVTLSREEVEKLVRELGRSPEEMTLEEFAERLEELFPGATVTVTVDTKTGTYTITITFPPSLASAG [r5_264_JUSTAS] | 3.61 ± 0.25 | 4.16 ± 0.085 | 3.93 ± 0.23
SAGMVKVEVEYRPLPNGTVEVTVKLTITEPVPDEDGNLYYKTKTLTITVPTTSLSEAPKHVEEFIKKLSAGG [r19_218_TrMRF] | 2.52 ± 0.12 | 4.03 ± 0.18 | 3.37 ± 0.19
SAGMVRIERDGDELLIEFEFPEDEPEAVRALIEAIESLGLEVVEAEIEAEPGEGDLRRVRLRFKIKPLESAG [r5_739_TrMRF] | 3.95 ± 0.22 | 4.58 ± 0.083 | 4.39 ± 0.15
SAGMVTTTTVTFPNGATMTVTTHSSGIITIEATSEEDARAFLEAQGLPLTSREVLPDGTYRFTAVVPPSAGG [r19_257_JUSTAS] | 4.61 ± 0.13 | 4.53 ± 0.057 | 4.52 ± 0.062
SAGMVTYTVTVPYAPAGKRVRVTLFDEGKEIASFEGVENAPYNQTFTFTAPPFTIRIEYEDGSVDPLPASAG [r5_646_TrMRF] | 3.32 ± 0.27 | 4.05 ± 0.058 | 3.57 ± 0.23
SAGMVVIEVKKDEVPVDPEKALVFEFGDKRYILVDGEKAEEIKDAFPNLDIKIKPVSPEELEKLLKAHSAGG [r19_271_TrMRF] | 1.18 ± 0.051 | 1.34 ± 0.1 | 1.27 ± 0.14
SAGMVVKFVSPSKKYVAVVYFSPDGKYRTALLYDASGELVSVIPSSVPVEELLEAFPDATVEVYPLDPPSAG [r5_314_TrMRF] | 1.95 ± 0.041 | 2.59 ± 0.056 | 2.34 ± 0.1
SAGMVVRITVLPEGEEREFVVAATPEEARELLEELGYEVEEFPELPVLVARRPDAVVLVEFIPVAPDALSAG [r5_248_TrMRF] | 1.59 ± 0.032 | 1.999 ± 0.015 | 1.83 ± 0.039
SAGMVVTERTEPATGRPYTVTTEEDGSVTGSYPATGDTRSTTLNDRTTFSLPTTSPEVAAAQVEAALAASAG [r14_561_JUSTAS] | -0.138 ± 0.075 | -0.313 ± 0.15 | -0.137 ± 0.072
SAGMVVTINFSIPETGETITITIPVPEDDPVVKALGAPSAEDIAAYLAPQLKEKGINVQNPTVTVTEPSSAG [r5_722_JUSTAS] | 0.24 ± 0.043 | 0.928 ± 0.053 | 0.705 ± 0.051

Sequence | folding stability dG unfold [1] [kcal/mol] | folding stability dG unfold [2] [kcal/mol] | folding stability dG unfold [3] [kcal/mol]
SAGNFKIDINPENNMIMIKSPNGWFMFPFTYTRTQPEPDPDDPNEWKQRPRTETHYIMMPANDLKDLLNSAG [r5_234_TrROS] | 0.679 ± 0.17 | 0.502 ± 0.24 | 0.541 ± 0.27
SAGNIRIDVHVPPDGYYMIKIRFPGNGREANIMLPPNDPDKFKELAEEIAENLFEEGFPIEVDIEPIPPSAG [r5_815_TrROS] | 1.56 ± 0.07 | 2.34 ± 0.095 | 1.89 ± 0.31
SAGNMFMVRITFPMPRYEQKRDPDNGKPKMEPKPHPREITIMVPPDSPQARDLANKLAPPGWKVDVFPMSAG [r5_468_TrROS] | 0.0695 ± 0.58 | 1.43 ± 0.22 | 1.09 ± 0.19
SAGNPDKPPKPRTYTLEIEIKLPPGDPDQAKELAHEIAHEIRDLGIKDTEVEYDPGNGRVRISITFTFWSAG [r5_512_TrROS] | 2.8 ± 0.076 | 3.49 ± 0.09 | 3.27 ± 0.28
SAGNPDYIPIPFRVWIMRRVPPGMSKEQAKKNPDMYVMVPIPVKFYIDPDTGRIRVENPDGKTIEFPLPSAG [r5_701_TrROS] | 2.11 ± 0.03 | 3.15 ± 0.07 | 2.68 ± 0.096
SAGNPSLVKETIIPFTLPDGSEVKLTVKTDPSTGKVTMPIETKDEKVKAKAIELAKKIAEELGFPEVGLSAG [r5_99_JUSTAS] | -0.00377 ± 0.15 | 0.241 ± 0.14 | 0.261 ± 0.079
SAGNVVETEEKPVESPLPRKATLTTLTSPTPGVTFRVFTSPENVTTVEVETDGRTETLEPAEAEALLASSAG [r5_157_JUSTAS] | -1.35 ± 0.58 | -0.995 ± 0.3 | < -1
SAGNWKIEIKVKHRRTPDGYYRVTARIQIWDPKNGKPLREIPIEGPFDSPEQAERRARKKAKEILKALSAGG [r19_255_TrROS] | 2.97 ± 0.068 | 2.71 ± 0.044 | 2.74 ± 0.13
SAGNYYRVEVENPSEGKKVTIHIFPNGMINVEHDGGEHWIMIPPDNPDQIEEIASELAPNGYEVDIEPWSAG [r5_791_TrROS] | 0.593 ± 0.11 | 0.856 ± 0.27 | 0.774 ± 0.18
SAGPDLPFDVRLVEVRDMEVRVTPDGRLVVTLPMVGRHPSGFLVRRTIRFEPETDRVEATGEVRPLDESAGG [r19_320_TrMRF] | 0.581 ± 0.062 | 0.804 ± 0.087 | 0.774 ± 0.059
SAGPEPVIRLAREHLERGEVLRITLTGRSGVPRTFLLRPEDILWFFDNLPDPSDIASVDIETYPLGYPPSAG [r5_956_TrMRF] | 2.17 ± 0.028 | 3.352 ± 0.016 | 3.01 ± 0.078
SAGPEVVVFKGIEVEVTEVPPELLENLPPDVIAIPFGDRVLLIRVREYDVARFPPIPPLGANPETGELSSAG [r14_126_TrMRF] | 2.17 ± 0.12 | 2.61 ± 0.11 | 2.44 ± 0.3
SAGPGWIMIRVKIKMRKWKDGKPVRRPIEIPIMAPADGDPEAARRKAEELAEFLAQMYGMEIEDVEIFPSAG [r5_497_TrROS] | 3.07 ± 0.092 | 3.74 ± 0.057 | 3.55 ± 0.065
SAGPITITYDEETGTLTITATVAPGEEVTFKLTFVDEETGVVVTEVEETVTVKEGDTVTITVKVEKLPPSAG [r5_737_TrROS_Hall] | 2.19 ± 0.14 | 3.69 ± 0.13 | 3.34 ± 0.27
SAGPKELAKQIKEIARELARAFHPNGQPMKMEVEIEPVSIDDENGWVRLKVKIRMPNRPVKFNITIPLKSAG [r5_53_TrROS] | 2.04 ± 0.07 | 3.19 ± 0.12 | 2.72 ± 0.27
SAGPKIEIHYTPNGIHLTIELPGEWIWMMIPVPPGEKVKIRLPGNGLEITARPYDDYVMIRIRIPDAPSAGG [r19_384_TrROS] | 3.59 ± 0.083 | 5.3 ± 0.16 | 4.74 ± 0.27
SAGPKITVKKLPDGSYLLLIEVPHEGGPSSRALIPYNPKTGKLELLEIETTHEEIKDKLIELAEELRKSSAG [r5_266_TrMRF] | 1.96 ± 0.08 | 2.8 ± 0.071 | 2.52 ± 0.13
SAGPNKPYKIRVSIMHPGKWREHEIDIDPGEDIEEALDEIMDKLPPNWMIMIHYANGEMIMIPIPPEMISAG [r5_77_TrROS] | 1.72 ± 0.097 | 2.18 ± 0.086 | 2.11 ± 0.16
